# Substitutions are numbered along the chain they refer to.
# B1: ALK Antibody 7: mouse hybridoma anti-ALK antibody against extracellular domain of human ALK receptor; VL/VH sequences in Tables 1 and 2 (antibody, V domains shown)
# VH: QVQLQQSGAELAKPGASVKLSCKASGYTFTSYWMHWVKQRPGQGLEWIGYINPSSGYTKYNQKFKDKATLTADKSSSTAYMQLSSLTFEDSAVYYCARDYYGSSSWFAYWGQGTLVTVSA
# VL: DIVMTQSQKFMSTSVGDRVSVTCKASQNVGTNVAWYQQKPGHSPKALIYSASYRYSGVPDRFTGSGSGTDFTLTISNVQSEDLAEYFCQRYNSYPYMFTFGGGTKLEIKR
# B2: ALK Antibody 3: mouse hybridoma anti-ALK antibody against extracellular domain of human ALK receptor; VL/VH sequences in Tables 1 and 2 (antibody, V domains shown)
# VH: B1 VH with S31N, F88Y
# VL: B1 VL with K9R, H42Q, I75V, R90Q, F98Y
# B3: ALK Antibody 5: mouse hybridoma anti-ALK antibody against extracellular domain of human ALK receptor; VL/VH sequences in Tables 1 and 2 (antibody, V domains shown)
# VH: B1 VH with N52K, F88Y
# VL: B1 VL with K9R, H42Q, R90Q, F98Y
# B4: ALK Antibody 6: mouse hybridoma anti-ALK antibody against extracellular domain of human ALK receptor; VL/VH sequences in Tables 1 and 2 (antibody, V domains shown)
# VH: DVKLVESGEGLVKPGGSLKLSCAASGFTFSSYAMSWVRQTPEKRLEWVTYISSGGDYIYYADTVKGRFTISRDNARNTLYLQMSSLKSEDTAMYYCTRERIWLRRFFDVWGTGTTVTVSS
# VL: DIVMTQSQKFMSTSVGDRVSITCKASQNVGTAVAWYQLKPGQSPKLLIYSASNRFTGVPDRFTGSGSGTDFTLTISNMQSEDLADYFCQQYSSYPLTFGSGTKLEIKR
# B5: ALK Antibody 1: mouse hybridoma anti-ALK antibody against extracellular domain of human ALK receptor; VL/VH sequences in Tables 1 and 2 (antibody, V domains shown)
# VH: QVQLQQSGAELVKPGASVKISCKASGYAFSSYWMNWVKQRPGKGLEWIGQIYPGDGDTNYNGKFKGKATLTADKSSSTAYMQLSSLTSEDSAVYFCASYYYGSKAYWGQGTLVTVSA
# VL: DIQMTQSPASLAASVGETVTITCRASENIYYSLAWYQQKQGKSPQLLIYNANSLEDGVPSRFSGSGSGTQYSMKINSMQPEDTATYFCKQAYDVPFTFGSGTKLEIKR
# What was measured:
# [1] = molecular target: ALK (Homo sapiens, UniProt Q9UM73); assay: ALK phosphorylation / ALK signaling activity of ALK antibodies; format: cell-based
# Protocol: (§1) Seven (7) ALK-specific antibodies (ALK Antibodies #1-#7) directed against the extracellular domain of human ALK receptor were evaluated for use in CAR-based immunotherapy.
# [2] = molecular target: Mouse-ALK (Mus musculus, UniProt P97793); assay: Mouse-ALK binding of ALK antibodies
# Protocol: as §1
# Sequence of ALK (Q9UM73 19-1620): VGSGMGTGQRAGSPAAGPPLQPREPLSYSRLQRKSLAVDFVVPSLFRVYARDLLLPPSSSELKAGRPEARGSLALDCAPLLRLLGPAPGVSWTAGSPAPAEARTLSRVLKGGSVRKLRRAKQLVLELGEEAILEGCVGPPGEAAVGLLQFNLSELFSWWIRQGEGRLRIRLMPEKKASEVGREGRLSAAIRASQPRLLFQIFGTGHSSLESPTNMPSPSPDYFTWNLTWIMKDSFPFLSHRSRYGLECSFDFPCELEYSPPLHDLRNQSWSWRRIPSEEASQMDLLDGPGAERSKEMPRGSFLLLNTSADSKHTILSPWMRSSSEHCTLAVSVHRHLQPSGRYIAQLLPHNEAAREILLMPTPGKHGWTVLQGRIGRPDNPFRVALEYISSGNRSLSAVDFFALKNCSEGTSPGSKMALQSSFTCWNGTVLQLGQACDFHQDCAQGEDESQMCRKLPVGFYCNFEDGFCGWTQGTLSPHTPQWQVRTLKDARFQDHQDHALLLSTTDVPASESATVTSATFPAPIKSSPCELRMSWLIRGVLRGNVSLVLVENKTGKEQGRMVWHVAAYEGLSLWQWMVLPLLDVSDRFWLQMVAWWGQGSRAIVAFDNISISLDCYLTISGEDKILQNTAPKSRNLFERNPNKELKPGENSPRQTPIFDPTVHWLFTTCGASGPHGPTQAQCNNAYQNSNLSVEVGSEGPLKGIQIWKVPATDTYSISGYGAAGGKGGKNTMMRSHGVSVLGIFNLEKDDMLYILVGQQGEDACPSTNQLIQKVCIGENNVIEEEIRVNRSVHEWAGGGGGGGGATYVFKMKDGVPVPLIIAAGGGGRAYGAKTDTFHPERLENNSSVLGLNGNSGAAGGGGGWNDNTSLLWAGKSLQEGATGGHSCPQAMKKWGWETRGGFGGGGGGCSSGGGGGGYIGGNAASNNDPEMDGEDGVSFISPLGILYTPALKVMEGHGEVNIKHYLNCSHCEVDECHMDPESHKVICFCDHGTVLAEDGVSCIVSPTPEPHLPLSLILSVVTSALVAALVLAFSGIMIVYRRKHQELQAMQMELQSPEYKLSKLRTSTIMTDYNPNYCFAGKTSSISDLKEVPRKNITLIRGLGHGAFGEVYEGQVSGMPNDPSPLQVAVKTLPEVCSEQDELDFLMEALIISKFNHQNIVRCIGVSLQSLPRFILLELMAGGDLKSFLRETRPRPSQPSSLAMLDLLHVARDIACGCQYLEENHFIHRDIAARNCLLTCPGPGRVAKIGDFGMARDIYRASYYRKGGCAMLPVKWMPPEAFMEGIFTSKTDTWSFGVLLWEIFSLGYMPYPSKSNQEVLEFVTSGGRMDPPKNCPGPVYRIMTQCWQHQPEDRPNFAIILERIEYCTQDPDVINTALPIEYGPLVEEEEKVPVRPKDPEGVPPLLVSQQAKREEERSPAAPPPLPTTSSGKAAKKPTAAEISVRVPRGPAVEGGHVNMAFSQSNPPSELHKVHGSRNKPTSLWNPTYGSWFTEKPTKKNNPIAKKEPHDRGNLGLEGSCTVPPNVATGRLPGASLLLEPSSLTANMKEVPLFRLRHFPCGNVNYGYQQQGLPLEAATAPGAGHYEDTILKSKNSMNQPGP
# Sequence of Mouse-ALK (P97793 19-1621): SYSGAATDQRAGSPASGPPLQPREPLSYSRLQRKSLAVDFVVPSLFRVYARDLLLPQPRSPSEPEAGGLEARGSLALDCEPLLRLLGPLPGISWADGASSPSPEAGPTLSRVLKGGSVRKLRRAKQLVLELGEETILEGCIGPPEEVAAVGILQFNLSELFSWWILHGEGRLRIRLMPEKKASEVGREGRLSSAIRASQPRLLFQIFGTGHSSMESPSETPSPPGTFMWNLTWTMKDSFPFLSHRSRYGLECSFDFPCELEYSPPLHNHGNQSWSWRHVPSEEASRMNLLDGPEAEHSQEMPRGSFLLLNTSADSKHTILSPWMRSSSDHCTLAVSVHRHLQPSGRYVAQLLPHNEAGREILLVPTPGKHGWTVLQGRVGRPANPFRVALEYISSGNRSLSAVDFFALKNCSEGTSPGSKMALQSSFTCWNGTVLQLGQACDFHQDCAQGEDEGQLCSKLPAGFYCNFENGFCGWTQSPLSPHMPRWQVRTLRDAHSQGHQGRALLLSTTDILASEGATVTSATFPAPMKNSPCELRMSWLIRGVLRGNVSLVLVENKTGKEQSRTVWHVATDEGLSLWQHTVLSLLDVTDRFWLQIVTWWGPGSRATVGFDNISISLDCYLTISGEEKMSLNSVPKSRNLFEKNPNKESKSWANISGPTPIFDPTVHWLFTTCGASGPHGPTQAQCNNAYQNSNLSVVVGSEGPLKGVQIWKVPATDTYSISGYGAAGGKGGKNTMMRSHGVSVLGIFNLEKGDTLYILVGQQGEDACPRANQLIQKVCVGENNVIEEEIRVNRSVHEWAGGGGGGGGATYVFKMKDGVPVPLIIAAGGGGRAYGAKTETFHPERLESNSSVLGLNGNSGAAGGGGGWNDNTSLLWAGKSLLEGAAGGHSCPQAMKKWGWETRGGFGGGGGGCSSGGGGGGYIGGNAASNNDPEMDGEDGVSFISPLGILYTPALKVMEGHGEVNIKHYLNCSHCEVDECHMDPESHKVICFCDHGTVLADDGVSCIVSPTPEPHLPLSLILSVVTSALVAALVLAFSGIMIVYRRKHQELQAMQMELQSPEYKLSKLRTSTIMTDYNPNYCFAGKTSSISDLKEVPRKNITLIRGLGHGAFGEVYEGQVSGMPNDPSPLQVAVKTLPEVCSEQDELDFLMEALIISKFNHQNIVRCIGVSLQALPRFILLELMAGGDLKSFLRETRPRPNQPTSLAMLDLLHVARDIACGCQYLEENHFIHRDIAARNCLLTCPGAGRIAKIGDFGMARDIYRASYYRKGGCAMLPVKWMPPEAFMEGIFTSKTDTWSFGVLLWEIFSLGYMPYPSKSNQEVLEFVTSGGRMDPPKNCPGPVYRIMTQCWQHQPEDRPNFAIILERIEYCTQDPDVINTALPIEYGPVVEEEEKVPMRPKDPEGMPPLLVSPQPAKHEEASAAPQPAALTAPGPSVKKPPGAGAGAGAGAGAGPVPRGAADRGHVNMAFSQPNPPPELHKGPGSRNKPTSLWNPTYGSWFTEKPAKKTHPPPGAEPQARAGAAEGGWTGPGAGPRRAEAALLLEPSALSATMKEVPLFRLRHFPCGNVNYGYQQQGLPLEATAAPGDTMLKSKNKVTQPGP
Molecule,activity on ALK signaling [1],recognition of human and murine ALK [2]
B1,agonistic of ALK signaling,recognize both the human and murine ALK
B2,inhibited ALK signaling,–
B3,inhibited ALK signaling,recognize both the human and murine ALK
B4,inhibited ALK signaling,recognize both the human and murine ALK
B5,no effect on ALK signaling,–

# Source: patent US20230101046A1, “ANAPLASTIC LYMPHOMA KINASE CHIMERIC ANTIGEN RECEPTORS AND METHODS OF USE” (The Children's Medical Center Corporation, priority 2020, published 2023)
